# Laboratory results as given in patent US11390894B2, “Biological processes for the production of aryl sulfates” (CysBio ApS, priority 2014, dated 2022).
# Tests used:
# Assay type in all cases: cell-based, Escherichia coli
# pHCA [1] = assay: Production of zosteric acid in E. coli from pHCA through heterologous expression of sulfotransferases; conditions: culture media; M9 glucose, 0.1 mM IPTG, 0.1 mM pHCA, four days of growth
# Description: A range of aryl sulfotransferases including SULT1A1 Rattus norvegicus (SEQ ID NO: 1), SULT1A1 Homo sapiens (SEQ ID NO: 2), SULT1A1 Equus caballus (SEQ ID NO: 3), SULT1A1 Sus scrofa domesticus (SEQ ID NO: 4), SULT1A1 Canis lupus familiaris (SEQ ID NO: 5) and SULT1E1 Gallus gallus domesticus (SEQ ID NO: 6) were expressed in Escherichia coli. […]. The nucleotide sequence of the gene encoding SEQ ID NO: 2 was codon optimized for expression in Escherichia coli (GeneArt, Life Technologies) and amplified by PCR using the primers in Table 1. The pETDuet-1 plasmid was digested with restriction endonucleases Ncol and Sal. The PCR products were then individually cloned into the plasmid pETDuet-1 using the Gibson reaction (New England Biolabs). The resulting plasmids were transformed into BL21(DE3)pLysS (Life Technologies).
# (§1) The strains were grown in M9 minimal media containing glucose as a carbon source, and 0.1 mM IPTG for induction of gene expression as well as 0.1 mM p-coumaric acid (pHCA). After four days of growth, samples were withdrawn by filtration and analyzed by HPLC.
# (§2) The concentration of p-courmaric acid (pHCA) and zosteric acid in the supernatant was quantified by high performance (HPLC) and compared to chemical standards. HPLC was done on a Thermo setup using a HS-F5 column and mobile phases: 5 mM ammonium formate pH 4.0 (A) and acetonitrile (B) at 1.5 mL min-1, using a gradient elution starting at 5% B. From 0.5 min after injection to 7 min, the fraction of B increased linearly from 5% to 60%, and between 9.5 min and 9.6 the fraction of B decreased back to 5%, and remaining there until 12 min. pHCA and zosteric acid were quantified by measuring absorbance at 277 nm.
# Zosteric acid was formed with an aryl sulfotransferase heterologously expressed in a microorganism exemplified by E. coli supplied with the substrate.
# kaempferol = assay: Percent conversion of substrate by E. coli cells expressing sulfotransferases; conditions: 87 μM kaempferol, M9 medium, overnight 37° C.
# Procedure: as §2
# (§3) Different sulfotransferases were examined for their substrate specificities against three substrates. We tested the sulfotransferases mentioned in example 1, as well as additional ones. The genes encoding these were cloned as described in example 1 using the primers shown in the table below from cDNA libraries of the respective organisms, except for the SULT1A1 from rat (Rattus norvegicus) codon-optimized for E. coli (described above). The resulting vectors were transformed into BL21(DE3)pLysS.
# (§4) The resulting strains were grown in M9 medium containing either 100 μM pHCA, 95 μM resveratrol or 87 M kaempferol. The cultures were grown overnight at 37° C., 300 rpm. The following day the supernatants were isolated and examined by HPLC as described in example 1.
# pHCA [2] = assay: as above; conditions: 100 μM pHCA, M9 medium, overnight 37° C.
# Procedure: as §2, §3, §4
# resveratrol = assay: as above; conditions: 95 μM resveratrol, M9 medium, overnight 37° C.
# Procedure: as §2, §3, §4
# pHCA [3] = assay: Zosteric acid production in E. coli expressing an aryl sulfotransferase in combination with cysDNC and cysQ; conditions: grown as in Example 1 (0.1 mM pHCA)
# Procedure: as §1, §2
# The plasmid pRSFDuet-1 (Life Technologies) was digested by the restriction endonucleases NdeI and BgIII. The gene cluster was inserted into the digested plasmid using the Gibson reaction (New England Biolabs). […] For the combined expression of cysDNC and cysQ in an artificial operon, cysDNCQ, the two parts were amplified by PCR from E. coli MG1655 chromosomal DNA using the primers shown in Table 3. Again the parts were inserted into the digested plasmid. […] The plasmid expressing SULT1A1 Homo sapiens (SEQ ID NO: 2) from example 1 was co-transformed into E. coli BL21(DE3)pLysS cells (Life Technologies) with either the plasmid expressing cysDNC or cysDNCQ.
# Cells were grown as in Example 1 and the supernatants were analyzed for product formation as in example 1. The strain expressing SULT1A1 in combination with cysDNCQ was also grown without the addition of IPTIG for induction.
Molecule,Zosteric acid formed (pHCA [1]),pHCA remaining (pHCA [1]),percent conversion of kaempferol (kaempferol),percent conversion of pHCA (pHCA [2]),percent conversion of resveratrol (resveratrol),Zosteric acid formed (pHCA [3]; induction 0.1 mM IPTG),pHCA remaining (pHCA [3]; induction 0.1 mM IPTG),pHCA remaining (pHCA [3]; induction None)
"SULT1A1 Sus scrofa domesticus: aryl sulfotransferase SULT1A1 Sus scrofa domesticus (SEQ ID NO: 4) (protein, listed as Sus scrofa) MEPVQDTYRPPLEYVKGVPLIKYFAEALGPLESFQAWPDDVLISTYPKSGTTWVSEILDLIYQGGDLQKCQRAPIFVRVPFLEFKIPGCPTGFELLKDTPAPRLLKTHLPLALLPQTLLDQKVKVVYVARNAKDVAVSYYHFYRMAKVHPNPGTWDSFLEDFMAGEVSYGSWYQHVQEWWELRHTHPVLYLFYEDMKENPKREIQKILEFVGRSLPEETVEDIVQHTSFQEMKNNAMTNYRTLPSDLLDHSISAFMRKGITGDWKSTFTVAQNERFEADYAEKMAGCNLRFRSEL",0.01 mM,0.09 mM,45%,8%,88%,,,
"SULT1A1 Equus caballus: aryl sulfotransferase SULT1A1 Equus caballus (SEQ ID NO: 3) (protein, listed as Equus caballus) MELIQDTSRPPLKYVKGVPLIKYFAEALGPLQSFQARPDDLLISTYPKSGTTWVSEILDMIYHGGDLEKCRRAPIFIRVPFLEFKAPEIPSGVEVLKDTPAPRLLKTHLPLSLLPQTLLDQKVKVVYLARNAKDVAVSYYHFYRMAKVHPDPGTWDSFLEKFMAGEVSYGSWYKHVQEWWELSHTHPVLYLFYEDMKENPKKEIQKILEFVGRSLPEETLDRIVQHTSFKEMKKNPMANYSTIPCDIMDHNISAFMRKGIAGDWKNTFTVAQNEHFDTDYAEKMAGCKLSFRSEV",0.01 mM,0.09 mM,96%,21%,100%,,,
"SULT1E1 Gallus gallus domesticus: aryl sulfotransferase SULT1E1 Gallus gallus domesticus (SEQ ID NO: 6) (protein, listed as Gallus gallus) MGNDEVIRQDLGCLYDIPLYKCFVAGWPQVEAFQARPDDLLIATYPKSGTTWLSEILDAIYHDGDLEKCRRDAIYNRVPFLEMKAPGILSGVEQLEKIPSPRLVKTHLPVHLLPASFQEKDCKVIYMARNAKDVVISYYYFYQMAKIHPDPGTLSEFLQAFMDGKVAYGSWYKHVKGWWEKRHEKRLLYLFYEDMKKDPRREIQKILQFLGKEVAEETVARILHHTSFQEMKKNPATNYETMPTELMDHSLSPFMRKGISGDWANHFTVAQNERFDQHYQQQMAGSDLCFQMEA",0.01 mM,0.08 mM,47%,17%,100%,,,
"SULT1A1 Homo sapiens: aryl sulfotransferase SULT1A1 Homo sapiens (SEQ ID NO: 2) (protein, listed as Homo sapiens) MELIQDTSRPPLEYVKGVPLIKYFAEALGPLQSFQARPDDLLISTYPKSGTTWVSQILDMIYQGGDLEKCHRAPIFMRVPFLEFKAPGIPSGMETLKDTPAPRLLKTHLPLALLPQTLLDQKVKVVYVARNAKDVAVSYYHFYHMAKVHPEPGTWDSFLEKFMVGEVSYGSWYQHVQEWWELSRTHPVLYLFYEDMKENPKREIQKILEFVGRSLPEETVDFMVQHTSFKEMKKNPMTNYTTVPQEFMDHSISPFMRKGMAGDWKTTFTVAQNERFDADYAEKMAGCSLSFRSEL",0.02 mM,0.08 mM,97%,39%,36%,0.02 mM,0.08 mM,
"SULT1A1 Homo sapiens, CysDNCQ: SULT1A1 Homo sapiens co-expressed with E. coli artificial operon cysDNCQ (plus PAP phosphatase cysQ) (protein, UniProt P50225 1-295, looked up, co-expressed with E. coli cysDNCQ) Sulfotransferase 1A1: MELIQDTSRPPLEYVKGVPLIKYFAEALGPLQSFQARPDDLLISTYPKSGTTWVSQILDMIYQGGDLEKCHRAPIFMRVPFLEFKAPGIPSGMETLKDTPAPRLLKTHLPLALLPQTLLDQKVKVVYVARNAKDVAVSYYHFYHMAKVHPEPGTWDSFLEKFMVGEVSYGSWYQHVQEWWELSRTHPVLYLFYEDMKENPKREIQKILEFVGRSLPEETVDFVVQHTSFKEMKKNPMTNYTTVPQEFMDHSISPFMRKGMAGDWKTTFTVAQNERFDADYAEKMAGCSLSFRSEL",,,,,,0.09 mM,0.04 mM,0.10 mM
"SULT1A1 Homo sapiens, CysDNC: SULT1A1 Homo sapiens co-expressed with E. coli cysDNC (ATP sulfurylase and APS kinase) (protein, UniProt P50225 1-295, looked up, co-expressed with E. coli cysDNC) Sulfotransferase 1A1: MELIQDTSRPPLEYVKGVPLIKYFAEALGPLQSFQARPDDLLISTYPKSGTTWVSQILDMIYQGGDLEKCHRAPIFMRVPFLEFKAPGIPSGMETLKDTPAPRLLKTHLPLALLPQTLLDQKVKVVYVARNAKDVAVSYYHFYHMAKVHPEPGTWDSFLEKFMVGEVSYGSWYQHVQEWWELSRTHPVLYLFYEDMKENPKREIQKILEFVGRSLPEETVDFVVQHTSFKEMKKNPMTNYTTVPQEFMDHSISPFMRKGMAGDWKTTFTVAQNERFDADYAEKMAGCSLSFRSEL",,,,,,0.06 mM,0.06 mM,
"SULT1A1 Canis lupus familiaris: aryl sulfotransferase SULT1A1 Canis lupus familiaris (SEQ ID NO: 5) (protein, listed as Canis lupus) MEDIPDTSRPPLKYVKGIPLIKYFAEALESLQDFQAQPDDLLISTYPKSGTTWVSEILDMIYQDGDVEKCRRAPVFIRVPFLEFKAPGIPTGLEVLKDTPAPRLIKTHLPLALLPQTLLDQKVKVVYVARNAKDVAVSYYHFYRMAKVHPDPDTWDSFLEKFMAGEVSYGSWYQHVQEWWELSHTHPVLYLFYEDMKENPKREIQKILKFVGRSLPEETVDLIVQHTSFKEMKNNSMANYTTLSPDIMDHSISAFMRKGISGDWKTTFTVAQNERFDADYAKKMEGCGLSFRTQL",0.01 mM,0.10 mM,60%,34%,61%,,,
